The source of these data is patent US20160136234A1.

Some targets named below: MLK1 (h) (human) (UniProt P80192); CaMKIIγ (h) (human) (UniProt Q13555); NEK6 (h) (human) (UniProt Q9HC98); MAPK2 (h) (human) (UniProt P28482); BTK(R28H) (h) (human) (UniProt Q06187); WNK2 (h) (human) (UniProt Q9Y3S1); GRK6 (h) (human) (UniProt P43250); NEK7 (h) (human) (UniProt Q8TDX7); mTOR/FKBP12 (h) (human) (UniProt P42345).
Holding throughout (test): cell-based or functional assay
The target in the next experiment is T1, ULK2 (h) (human) (UniProt Q8IYT8).
T1 sequence (looked up): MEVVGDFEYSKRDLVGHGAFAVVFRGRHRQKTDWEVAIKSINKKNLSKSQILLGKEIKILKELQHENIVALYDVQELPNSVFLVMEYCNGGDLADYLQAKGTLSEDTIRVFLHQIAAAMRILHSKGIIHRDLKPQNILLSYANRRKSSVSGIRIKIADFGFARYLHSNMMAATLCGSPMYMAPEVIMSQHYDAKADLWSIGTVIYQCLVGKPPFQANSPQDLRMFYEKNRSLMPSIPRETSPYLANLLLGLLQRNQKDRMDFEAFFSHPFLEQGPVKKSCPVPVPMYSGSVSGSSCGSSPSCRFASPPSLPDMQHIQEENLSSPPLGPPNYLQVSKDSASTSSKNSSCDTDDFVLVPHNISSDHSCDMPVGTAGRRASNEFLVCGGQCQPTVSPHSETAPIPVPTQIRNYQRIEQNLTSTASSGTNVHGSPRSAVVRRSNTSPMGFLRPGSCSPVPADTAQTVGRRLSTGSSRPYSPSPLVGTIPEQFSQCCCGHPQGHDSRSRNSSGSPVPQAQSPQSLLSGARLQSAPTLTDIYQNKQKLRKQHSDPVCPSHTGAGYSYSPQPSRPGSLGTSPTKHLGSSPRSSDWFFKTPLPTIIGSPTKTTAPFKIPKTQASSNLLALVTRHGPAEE

The target in a further experiment is T2, PKCµ (h) (human) (UniProt Q15139).
T2 sequence (looked up): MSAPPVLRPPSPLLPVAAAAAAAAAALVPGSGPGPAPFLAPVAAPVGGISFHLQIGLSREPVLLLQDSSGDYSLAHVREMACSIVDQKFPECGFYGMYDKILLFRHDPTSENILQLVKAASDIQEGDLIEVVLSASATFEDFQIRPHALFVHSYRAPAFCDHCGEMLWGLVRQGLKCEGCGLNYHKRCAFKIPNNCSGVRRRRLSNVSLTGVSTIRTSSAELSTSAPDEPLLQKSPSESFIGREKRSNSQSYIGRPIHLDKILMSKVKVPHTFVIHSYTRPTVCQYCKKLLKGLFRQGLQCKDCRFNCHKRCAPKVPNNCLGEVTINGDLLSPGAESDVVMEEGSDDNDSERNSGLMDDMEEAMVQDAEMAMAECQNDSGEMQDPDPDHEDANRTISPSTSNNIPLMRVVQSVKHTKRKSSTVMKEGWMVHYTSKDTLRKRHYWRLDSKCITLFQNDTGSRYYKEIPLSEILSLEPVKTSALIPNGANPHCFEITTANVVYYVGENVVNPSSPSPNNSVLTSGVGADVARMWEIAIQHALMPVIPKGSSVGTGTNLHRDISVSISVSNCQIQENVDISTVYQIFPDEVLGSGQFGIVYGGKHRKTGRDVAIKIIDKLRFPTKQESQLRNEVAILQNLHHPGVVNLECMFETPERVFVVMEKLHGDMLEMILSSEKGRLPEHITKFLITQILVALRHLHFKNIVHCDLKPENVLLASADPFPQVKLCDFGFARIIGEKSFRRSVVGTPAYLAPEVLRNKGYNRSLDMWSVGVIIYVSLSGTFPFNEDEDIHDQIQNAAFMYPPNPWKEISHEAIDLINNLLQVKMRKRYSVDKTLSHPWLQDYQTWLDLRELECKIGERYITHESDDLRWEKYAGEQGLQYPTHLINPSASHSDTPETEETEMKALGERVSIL

Another experiment has as its target T3, Flt3 (h) (human) (UniProt P36888).
T3 sequence (looked up): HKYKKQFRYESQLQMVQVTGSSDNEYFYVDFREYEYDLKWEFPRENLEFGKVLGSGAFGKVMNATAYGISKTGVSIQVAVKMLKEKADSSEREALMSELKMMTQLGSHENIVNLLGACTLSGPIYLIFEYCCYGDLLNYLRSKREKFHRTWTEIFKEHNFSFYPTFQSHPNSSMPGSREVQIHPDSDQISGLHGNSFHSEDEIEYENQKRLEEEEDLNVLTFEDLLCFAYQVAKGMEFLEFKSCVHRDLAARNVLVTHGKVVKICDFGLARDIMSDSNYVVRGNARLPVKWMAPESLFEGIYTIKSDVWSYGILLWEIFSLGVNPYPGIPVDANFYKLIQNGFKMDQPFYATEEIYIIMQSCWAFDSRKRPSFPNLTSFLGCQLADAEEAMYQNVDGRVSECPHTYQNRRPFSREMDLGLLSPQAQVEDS

Experiment [1] addresses BDNF/NT-3 growth factors receptor (human) (UniProt Q16620).
Experiment [2] deals with SAPK2a(T106M) (h) (human) (UniProt Q16539).
Another experiment addresses T4, TSSK1 (h) (human) (UniProt Q9BXA7).
T4 sequence (looked up): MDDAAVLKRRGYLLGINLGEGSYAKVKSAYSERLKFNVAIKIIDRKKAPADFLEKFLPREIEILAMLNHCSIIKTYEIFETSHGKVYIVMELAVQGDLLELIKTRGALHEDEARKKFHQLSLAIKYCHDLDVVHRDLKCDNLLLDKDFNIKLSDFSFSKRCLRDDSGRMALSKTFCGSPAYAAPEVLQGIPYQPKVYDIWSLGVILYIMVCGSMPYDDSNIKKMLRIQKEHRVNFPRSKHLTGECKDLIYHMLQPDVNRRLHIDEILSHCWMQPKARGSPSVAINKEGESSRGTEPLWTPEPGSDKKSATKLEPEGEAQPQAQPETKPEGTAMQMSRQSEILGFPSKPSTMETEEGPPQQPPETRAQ

Experiment [3] has as its target IR (h), activated (human) (UniProt P06213).

Sequence of MAPK2 (h) (human) (P28482 whole entry): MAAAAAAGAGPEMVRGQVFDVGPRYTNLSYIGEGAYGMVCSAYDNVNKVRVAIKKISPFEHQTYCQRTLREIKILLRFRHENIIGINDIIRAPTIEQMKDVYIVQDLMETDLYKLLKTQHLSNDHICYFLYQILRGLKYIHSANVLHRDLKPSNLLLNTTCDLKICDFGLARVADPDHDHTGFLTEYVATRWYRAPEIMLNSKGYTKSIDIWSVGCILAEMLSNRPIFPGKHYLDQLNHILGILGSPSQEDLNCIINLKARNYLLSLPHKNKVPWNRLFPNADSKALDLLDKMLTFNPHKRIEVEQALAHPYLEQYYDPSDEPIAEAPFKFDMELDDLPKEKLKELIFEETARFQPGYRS
Sequence of IR (h), activated (human) (P06213 1005-1310 limits assumed): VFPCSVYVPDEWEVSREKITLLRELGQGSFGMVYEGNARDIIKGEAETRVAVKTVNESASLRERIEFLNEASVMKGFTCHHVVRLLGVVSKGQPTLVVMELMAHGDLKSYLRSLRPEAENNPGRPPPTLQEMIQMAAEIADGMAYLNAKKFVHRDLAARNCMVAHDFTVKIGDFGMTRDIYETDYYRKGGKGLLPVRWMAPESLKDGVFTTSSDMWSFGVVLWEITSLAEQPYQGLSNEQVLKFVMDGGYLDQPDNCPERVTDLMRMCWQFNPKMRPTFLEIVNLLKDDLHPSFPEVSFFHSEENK
Sequence of mTOR/FKBP12 (h) (human) (P42345 1362-2549 limits assumed, chain 1 of 2): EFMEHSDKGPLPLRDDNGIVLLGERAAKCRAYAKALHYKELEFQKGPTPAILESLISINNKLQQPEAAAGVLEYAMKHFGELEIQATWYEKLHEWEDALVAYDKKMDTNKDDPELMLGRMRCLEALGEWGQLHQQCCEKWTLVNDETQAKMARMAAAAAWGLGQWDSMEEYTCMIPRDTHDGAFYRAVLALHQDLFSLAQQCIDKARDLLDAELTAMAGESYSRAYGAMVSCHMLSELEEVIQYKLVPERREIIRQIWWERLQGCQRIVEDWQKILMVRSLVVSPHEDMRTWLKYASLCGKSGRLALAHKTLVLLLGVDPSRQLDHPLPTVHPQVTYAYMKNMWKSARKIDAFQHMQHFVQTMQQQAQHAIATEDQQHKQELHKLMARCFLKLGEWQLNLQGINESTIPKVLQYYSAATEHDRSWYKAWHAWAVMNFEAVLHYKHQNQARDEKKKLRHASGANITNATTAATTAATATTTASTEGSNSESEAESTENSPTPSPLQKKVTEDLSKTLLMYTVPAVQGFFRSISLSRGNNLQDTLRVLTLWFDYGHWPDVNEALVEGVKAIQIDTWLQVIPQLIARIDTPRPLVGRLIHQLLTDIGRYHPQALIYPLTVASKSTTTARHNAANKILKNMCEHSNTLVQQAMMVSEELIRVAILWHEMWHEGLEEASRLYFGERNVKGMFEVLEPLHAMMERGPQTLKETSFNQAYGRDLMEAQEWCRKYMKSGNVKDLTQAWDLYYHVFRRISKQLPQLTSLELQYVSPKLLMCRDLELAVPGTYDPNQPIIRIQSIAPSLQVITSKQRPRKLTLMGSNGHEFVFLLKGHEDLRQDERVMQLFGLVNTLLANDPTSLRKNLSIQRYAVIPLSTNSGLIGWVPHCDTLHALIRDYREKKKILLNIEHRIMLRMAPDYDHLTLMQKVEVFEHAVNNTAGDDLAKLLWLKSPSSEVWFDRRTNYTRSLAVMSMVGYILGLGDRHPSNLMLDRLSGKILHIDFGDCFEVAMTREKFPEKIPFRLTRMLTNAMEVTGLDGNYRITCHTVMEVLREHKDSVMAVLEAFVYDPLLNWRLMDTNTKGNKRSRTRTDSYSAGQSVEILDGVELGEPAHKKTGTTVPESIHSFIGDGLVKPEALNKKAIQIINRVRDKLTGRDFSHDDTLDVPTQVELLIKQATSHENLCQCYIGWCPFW
Sequence of mTOR/FKBP12 (h) (human) (P62942 whole entry, chain 2 of 2, further chain): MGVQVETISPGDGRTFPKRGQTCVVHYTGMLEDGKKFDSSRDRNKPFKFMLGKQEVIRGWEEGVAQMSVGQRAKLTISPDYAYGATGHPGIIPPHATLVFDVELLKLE
Sequence of SAPK2a(T106M) (h) (human) (Q16539 whole entry T106M): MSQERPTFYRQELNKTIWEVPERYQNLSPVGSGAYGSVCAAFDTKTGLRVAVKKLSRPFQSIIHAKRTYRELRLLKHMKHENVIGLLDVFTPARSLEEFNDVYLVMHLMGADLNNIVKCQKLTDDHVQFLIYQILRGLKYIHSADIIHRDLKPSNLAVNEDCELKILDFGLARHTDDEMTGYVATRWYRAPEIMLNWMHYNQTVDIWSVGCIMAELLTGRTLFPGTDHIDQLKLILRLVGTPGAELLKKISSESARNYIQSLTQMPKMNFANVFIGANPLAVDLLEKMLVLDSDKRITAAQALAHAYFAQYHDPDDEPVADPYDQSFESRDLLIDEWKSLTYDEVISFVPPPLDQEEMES
Sequence of CaMKIIγ (h) (human) (Q13555 whole entry): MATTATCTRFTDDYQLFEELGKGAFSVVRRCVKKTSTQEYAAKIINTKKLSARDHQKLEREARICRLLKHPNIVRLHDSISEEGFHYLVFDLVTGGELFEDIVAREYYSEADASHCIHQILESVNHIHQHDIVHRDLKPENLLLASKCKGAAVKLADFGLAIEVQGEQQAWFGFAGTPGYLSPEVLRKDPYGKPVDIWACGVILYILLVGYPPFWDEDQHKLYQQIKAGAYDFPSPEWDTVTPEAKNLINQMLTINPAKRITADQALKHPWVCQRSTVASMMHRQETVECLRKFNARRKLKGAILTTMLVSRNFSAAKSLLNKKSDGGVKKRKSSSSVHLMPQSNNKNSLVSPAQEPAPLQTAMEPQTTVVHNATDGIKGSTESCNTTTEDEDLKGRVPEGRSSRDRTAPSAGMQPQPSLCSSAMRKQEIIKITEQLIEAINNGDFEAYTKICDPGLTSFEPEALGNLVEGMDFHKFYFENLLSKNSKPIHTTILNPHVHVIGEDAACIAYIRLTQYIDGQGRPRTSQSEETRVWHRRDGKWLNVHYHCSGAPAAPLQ

For MMI-0300 (peptide), the % activity at 100 µM in the experiment with ULK2 (h) (human) is 122%; in the experiment with PKCµ (h) (human), 22%; with MLK1 (h) (human), 40%; with Flt3 (h) (human), 84%; in the experiment with CaMKIIγ (h) (human), 5%; with NEK6 (h) (human), 82%. The % activity at 100 µM with MAPK2 (h) (human) worked out at 98%; in [1], 5%; with BTK(R28H) (h) (human), 74%; with WNK2 (h) (human) it was 64%; with GRK6 (h) (human), 147%; in experiment [2], 97%. Further, the % activity at 100 µM came to 79% with TSSK1 (h) (human), 84% with NEK7 (h) (human), 79% in experiment [3] and 145% in the experiment with mTOR/FKBP12 (h) (human).
